The results in this text go back to IntAct's records for PubMed 19219046.

The target in the test is DDX19B, Q9UMR2-1.
DDX19B, Q9UMR2-1, sequence (Q9UMR2 whole entry): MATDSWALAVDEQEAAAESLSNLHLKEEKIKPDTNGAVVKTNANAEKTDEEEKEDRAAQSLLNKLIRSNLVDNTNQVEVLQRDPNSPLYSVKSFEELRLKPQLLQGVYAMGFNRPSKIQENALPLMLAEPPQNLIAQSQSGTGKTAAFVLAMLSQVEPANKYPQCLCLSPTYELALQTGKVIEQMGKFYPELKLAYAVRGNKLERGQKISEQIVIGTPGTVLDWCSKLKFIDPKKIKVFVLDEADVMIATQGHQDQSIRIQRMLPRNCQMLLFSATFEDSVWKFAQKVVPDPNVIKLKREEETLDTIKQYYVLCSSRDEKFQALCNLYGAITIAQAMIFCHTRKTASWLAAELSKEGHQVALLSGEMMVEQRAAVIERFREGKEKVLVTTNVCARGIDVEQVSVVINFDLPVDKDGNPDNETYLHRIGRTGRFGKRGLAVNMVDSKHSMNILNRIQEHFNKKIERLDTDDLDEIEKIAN

Nuclear pore complex protein Nup214 (Homo sapiens), P35658-1 V353A, sequence (P35658 whole entry V353A, one chain of several): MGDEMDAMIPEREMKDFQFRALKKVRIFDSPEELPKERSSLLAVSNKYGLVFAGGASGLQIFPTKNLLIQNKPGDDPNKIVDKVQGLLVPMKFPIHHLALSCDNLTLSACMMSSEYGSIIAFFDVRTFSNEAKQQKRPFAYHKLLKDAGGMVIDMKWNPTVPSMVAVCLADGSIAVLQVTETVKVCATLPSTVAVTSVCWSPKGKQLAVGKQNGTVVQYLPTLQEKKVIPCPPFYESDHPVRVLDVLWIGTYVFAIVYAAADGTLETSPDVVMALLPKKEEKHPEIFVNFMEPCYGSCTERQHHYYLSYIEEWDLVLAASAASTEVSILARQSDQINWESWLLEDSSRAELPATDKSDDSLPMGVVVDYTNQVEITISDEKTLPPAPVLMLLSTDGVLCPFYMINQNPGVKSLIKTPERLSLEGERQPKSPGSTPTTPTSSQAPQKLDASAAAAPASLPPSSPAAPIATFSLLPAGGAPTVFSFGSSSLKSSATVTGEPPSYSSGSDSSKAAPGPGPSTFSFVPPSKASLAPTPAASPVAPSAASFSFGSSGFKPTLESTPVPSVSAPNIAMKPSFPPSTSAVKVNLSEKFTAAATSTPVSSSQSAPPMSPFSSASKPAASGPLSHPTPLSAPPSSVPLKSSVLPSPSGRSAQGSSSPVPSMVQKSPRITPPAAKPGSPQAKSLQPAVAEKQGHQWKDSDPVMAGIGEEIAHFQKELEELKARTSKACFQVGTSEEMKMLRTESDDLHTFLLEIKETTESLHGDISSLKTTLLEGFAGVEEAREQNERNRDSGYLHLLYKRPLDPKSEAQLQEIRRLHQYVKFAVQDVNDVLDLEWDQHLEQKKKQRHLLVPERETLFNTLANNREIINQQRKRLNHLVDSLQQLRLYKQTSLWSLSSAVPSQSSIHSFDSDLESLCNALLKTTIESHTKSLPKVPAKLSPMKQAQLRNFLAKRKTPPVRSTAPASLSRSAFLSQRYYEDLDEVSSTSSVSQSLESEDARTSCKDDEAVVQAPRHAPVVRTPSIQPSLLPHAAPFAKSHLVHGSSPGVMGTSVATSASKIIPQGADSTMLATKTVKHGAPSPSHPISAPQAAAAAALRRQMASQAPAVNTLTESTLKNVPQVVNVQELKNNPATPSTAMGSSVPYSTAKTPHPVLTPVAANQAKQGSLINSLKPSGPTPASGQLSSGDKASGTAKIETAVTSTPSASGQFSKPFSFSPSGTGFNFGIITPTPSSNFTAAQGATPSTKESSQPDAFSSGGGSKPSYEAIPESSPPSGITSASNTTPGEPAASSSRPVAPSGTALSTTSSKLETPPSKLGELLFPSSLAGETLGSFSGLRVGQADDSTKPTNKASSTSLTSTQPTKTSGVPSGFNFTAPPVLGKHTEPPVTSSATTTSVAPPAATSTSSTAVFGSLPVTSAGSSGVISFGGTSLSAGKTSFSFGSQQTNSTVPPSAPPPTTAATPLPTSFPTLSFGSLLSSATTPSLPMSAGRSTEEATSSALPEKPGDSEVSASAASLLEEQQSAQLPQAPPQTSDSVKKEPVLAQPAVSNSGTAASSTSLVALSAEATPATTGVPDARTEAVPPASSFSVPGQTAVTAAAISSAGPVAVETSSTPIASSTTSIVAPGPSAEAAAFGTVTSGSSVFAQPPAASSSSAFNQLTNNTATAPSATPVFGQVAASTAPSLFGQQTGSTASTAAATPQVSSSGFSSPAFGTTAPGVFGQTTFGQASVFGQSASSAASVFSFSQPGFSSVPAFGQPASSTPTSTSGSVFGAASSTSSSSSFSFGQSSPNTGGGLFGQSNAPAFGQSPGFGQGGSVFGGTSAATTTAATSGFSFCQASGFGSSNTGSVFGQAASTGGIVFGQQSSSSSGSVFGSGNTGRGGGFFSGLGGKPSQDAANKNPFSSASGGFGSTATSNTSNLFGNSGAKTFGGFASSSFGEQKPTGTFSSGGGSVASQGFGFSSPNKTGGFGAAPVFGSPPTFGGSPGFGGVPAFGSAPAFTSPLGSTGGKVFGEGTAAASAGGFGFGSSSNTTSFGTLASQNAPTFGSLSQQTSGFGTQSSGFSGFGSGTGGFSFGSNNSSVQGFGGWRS
Nuclear pore complex protein Nup214 (Homo sapiens), P35658-1 D359R, sequence (P35658 whole entry D359R, one chain of several): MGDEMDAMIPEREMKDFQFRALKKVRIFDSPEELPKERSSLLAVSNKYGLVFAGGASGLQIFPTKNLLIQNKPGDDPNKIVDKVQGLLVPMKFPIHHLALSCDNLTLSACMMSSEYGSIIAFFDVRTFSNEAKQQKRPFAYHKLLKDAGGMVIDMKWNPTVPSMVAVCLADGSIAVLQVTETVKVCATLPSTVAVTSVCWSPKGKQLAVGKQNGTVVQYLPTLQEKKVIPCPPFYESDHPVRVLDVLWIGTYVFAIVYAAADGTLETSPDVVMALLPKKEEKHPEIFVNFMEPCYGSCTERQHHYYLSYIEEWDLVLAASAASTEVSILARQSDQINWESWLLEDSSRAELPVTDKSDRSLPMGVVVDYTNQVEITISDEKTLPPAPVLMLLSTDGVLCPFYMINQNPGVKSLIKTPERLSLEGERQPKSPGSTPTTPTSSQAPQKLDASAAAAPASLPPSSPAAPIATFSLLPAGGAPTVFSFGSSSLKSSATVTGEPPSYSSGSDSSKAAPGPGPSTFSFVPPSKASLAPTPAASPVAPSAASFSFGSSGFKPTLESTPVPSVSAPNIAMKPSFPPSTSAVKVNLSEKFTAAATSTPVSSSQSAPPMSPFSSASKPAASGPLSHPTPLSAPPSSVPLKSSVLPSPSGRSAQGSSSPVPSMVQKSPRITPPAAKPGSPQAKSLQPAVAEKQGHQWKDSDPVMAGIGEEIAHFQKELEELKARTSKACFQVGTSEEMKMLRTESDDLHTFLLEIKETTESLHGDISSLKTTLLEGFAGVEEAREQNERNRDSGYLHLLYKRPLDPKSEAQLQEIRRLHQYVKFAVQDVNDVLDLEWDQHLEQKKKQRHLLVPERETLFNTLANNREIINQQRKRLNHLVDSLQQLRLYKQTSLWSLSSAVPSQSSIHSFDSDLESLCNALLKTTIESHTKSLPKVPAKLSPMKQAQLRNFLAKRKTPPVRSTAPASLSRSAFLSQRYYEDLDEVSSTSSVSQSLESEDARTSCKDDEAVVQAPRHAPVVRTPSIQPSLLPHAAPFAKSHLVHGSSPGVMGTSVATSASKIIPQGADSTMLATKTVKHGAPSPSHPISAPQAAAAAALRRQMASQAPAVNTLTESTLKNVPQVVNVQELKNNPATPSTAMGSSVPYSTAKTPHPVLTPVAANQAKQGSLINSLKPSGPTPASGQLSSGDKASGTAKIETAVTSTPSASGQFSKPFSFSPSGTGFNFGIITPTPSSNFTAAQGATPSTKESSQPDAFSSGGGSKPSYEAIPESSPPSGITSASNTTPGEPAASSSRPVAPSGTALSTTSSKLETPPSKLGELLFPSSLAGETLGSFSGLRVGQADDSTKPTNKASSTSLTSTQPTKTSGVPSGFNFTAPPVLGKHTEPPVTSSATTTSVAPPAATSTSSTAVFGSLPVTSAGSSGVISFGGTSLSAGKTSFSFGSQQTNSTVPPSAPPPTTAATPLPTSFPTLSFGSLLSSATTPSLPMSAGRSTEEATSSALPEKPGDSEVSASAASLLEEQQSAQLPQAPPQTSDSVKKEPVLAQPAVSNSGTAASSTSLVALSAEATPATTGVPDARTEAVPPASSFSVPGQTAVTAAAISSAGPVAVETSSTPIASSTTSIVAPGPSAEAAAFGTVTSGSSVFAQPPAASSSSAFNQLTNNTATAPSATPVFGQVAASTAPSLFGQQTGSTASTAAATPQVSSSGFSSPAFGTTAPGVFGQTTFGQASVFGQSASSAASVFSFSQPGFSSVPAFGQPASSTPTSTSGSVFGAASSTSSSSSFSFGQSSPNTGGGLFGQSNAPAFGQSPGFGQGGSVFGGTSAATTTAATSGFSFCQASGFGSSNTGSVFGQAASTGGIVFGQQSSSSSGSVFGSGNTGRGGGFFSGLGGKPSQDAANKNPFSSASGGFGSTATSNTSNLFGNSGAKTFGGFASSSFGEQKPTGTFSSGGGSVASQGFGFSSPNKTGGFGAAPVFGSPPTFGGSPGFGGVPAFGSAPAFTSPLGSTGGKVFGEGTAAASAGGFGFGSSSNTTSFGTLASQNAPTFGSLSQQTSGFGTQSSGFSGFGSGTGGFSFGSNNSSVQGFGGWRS

Take “Nuclear pore complex protein Nup214 (Homo sapiens), P35658-1 V353A”: the “effect of a mutation on the interaction” value was “decreasing interaction”.

Consider “Nuclear pore complex protein Nup214 (Homo sapiens), P35658-1 D359R”, for which the “effect of a mutation on the interaction” value is reported as “disrupting interaction”.
